US12059429B2, “Hornerin: a novel non-VEGF mediated angiogenic protein expressed in both human and mouse angiogenic endothelial cells and human pancreatic cancer cells” (University of Virginia Patent Foundation, priority 2018, dated 2024)

System: hornerin
Experiment: Immunoblot of hornerin in HUVECs treated with growth factors
Format: cell-based, human
Details: 24 hours treatment; growth factors at published B-max concentrations, EGF at increasing concentrations
Procedure: HUVECs were cultured in 10 cm dishes for 24 hours prior to a change to media containing VEGF (at B-max concentration), TCM, or VC. After 24 hours treatment, the cells were washed with DPBST two times and lysed with radioimmunoprecipitation assay (RIPA) buffer (Thermo Scientific). Lysate protein concentrations were measured by the bicinchoninic acid assay (Pierce, Waltham, MA, USA) and equivalent amounts of protein were loaded into precast 4-15% tris-glycine eXtended (TGX) polyacrylamide gels (Bio-Rad, Hercules, CA, USA). The proteins were resolved by electrophoresis and transferred to nitrocellulose membranes using the iBlot system (Invitrogen, Carlsbad, CA, USA). The membranes were then washed in Tris-buffered saline+1% Tween-20 (TBST), blocked for 30 minutes in TBST+2% milk solution, and incubated overnight at 4° C. with primary antibodies anti-hornerin (Abcam, Cambridge, UK, ab78909; (1:1000)) and anti-HSP90 (Cell Signaling Technology, Danvers, MA, USA, 4877; (1:1000)). The following day the membranes were washed and subsequently incubated with the secondary antibodies anti-goat HRP (R&D Systems, Minneapolis, MN, USA, HAF109; 1:5000) and anti-rabbit HRP (GE Healthcare, NA934V; 1:5000) for 45 minutes at RT. […]
Major constituents of TCM were determined using a Human Angiogenesis Antibody Array (Affymetrix, Santa Clara, CA, USA) per manufacturer's instructions. […]

B1: IL-12: growth factor found in TCM, added to HUVECs at published B-max concentration (protein, UniProt P29459 23-219; P29460 23-328, looked up)
Interleukin-12 subunit alpha: RNLPVATPDPGMFPCLHHSQNLLRAVSNMLQKARQTLEFYPCTSEEIDHEDITKDKTSTVEACLPLELTKNESCLNSRETSFITNGSCLASRKTSFMMALCLSSIYEDLKMYQVEFKTMNAKLLMDPKRQIFLDQNMLAVIDELMQALNFNSETVPQKSSLEEPDFYKTKIKLCILLHAFRIRAVTIDRVMSYLNAS
Interleukin-12 subunit beta: IWELKKDVYVVELDWYPDAPGEMVVLTCDTPEEDGITWTLDQSSEVLGSGKTLTIQVKEFGDAGQYTCHKGGEVLSHSLLLLHKKEDGIWSTDILKDQKEPKNKTFLRCEAKNYSGRFTCWWLTTISTDLTFSVKSSRGSSDPQGVTCGAATLSAERVRGDNKEYEYSVECQEDSACPAAEESLPIEVMVDAVHKLKYENYTSSFFIRDIIKPDPPKNLQLKPLKNSRQVEVSWEYPDTWSTPHSYFSLTFCVQVQGKSKREKKDRVFTDKTSATVICRKNASISVRAQDRYYSSSWSEWASVPCS
hornerin expression in HUVECs: might stimulate hornerin expression
